What was measured:
[1] = biological target: CHO human PlGF-1 fragment (comprising amino acids 17-131; ATCC PTA-8540) (human) (UniProt P49763); experiment: … sandwich, capture MAb04, detection pAb264; antigen 1500 pg/mL
[2] = biological target: human PlGF-1 fragment (comprising amino acids 17-131) produced in human embryonic kidney cells (human) (UniProt P49763); experiment: as above
[3] = biological target: human PlGF-1 comprising amino acids 1-137 produced in human embryonic kidney cells (human) (UniProt P49763); experiment: as above
Sequence of human PlGF-1 comprising amino acids 1-137 produced in human embryonic kidney cells (human) (P49763 other isoform, or with tags, fused parts or gaps): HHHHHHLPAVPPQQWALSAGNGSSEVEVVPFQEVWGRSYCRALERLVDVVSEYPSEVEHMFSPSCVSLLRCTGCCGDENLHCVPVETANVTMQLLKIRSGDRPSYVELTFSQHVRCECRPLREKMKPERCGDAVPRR

[4] = biological target: CHO human PlGF-1 comprising amino acids 1-137 (human PlGF-1-His (1-131), CHO 6305) (human) (UniProt P49763); experiment: as above
Sequence of CHO human PlGF-1 comprising amino acids 1-137 (human PlGF-1-His (1-131), CHO 6305) (human) (P49763 other isoform, or with tags, fused parts or gaps): as above

[5] = biological target: recombinant human PlGF-1 (comprising amino acids 1-131) expressed in E. coli (R&D Systems) (human) (UniProt P49763); experiment: as above
[6] = biological target: CHO human PlGF-1 fragment (comprising amino acids 17-131; ATCC PTA-8540) (human) (UniProt P49763); experiment: … sandwich, capture MAb04, detection pAb264; antigen 0 pg/mL (blank)
[7] = biological target: human PlGF-1 fragment (comprising amino acids 17-131) produced in human embryonic kidney cells (human) (UniProt P49763); experiment: as above
[8] = biological target: human PlGF-1 comprising amino acids 1-137 produced in human embryonic kidney cells (human) (UniProt P49763); experiment: as above
[9] = biological target: CHO human PlGF-1 comprising amino acids 1-137 (human PlGF-1-His (1-131), CHO 6305) (human) (UniProt P49763); experiment: as above
[10] = biological target: recombinant human PlGF-1 (comprising amino acids 1-131) expressed in E. coli (R&D Systems) (human) (UniProt P49763); experiment: as above
[11] = biological target: CHO human PlGF-1 fragment (comprising amino acids 17-131; ATCC PTA-8540) (human) (UniProt P49763); experiment: … sandwich, capture MAb04, detection pAb264; antigen 750 pg/mL
[12] = biological target: human PlGF-1 fragment (comprising amino acids 17-131) produced in human embryonic kidney cells (human) (UniProt P49763); experiment: as above
[13] = biological target: human PlGF-1 comprising amino acids 1-137 produced in human embryonic kidney cells (human) (UniProt P49763); experiment: as above
[14] = biological target: CHO human PlGF-1 comprising amino acids 1-137 (human PlGF-1-His (1-131), CHO 6305) (human) (UniProt P49763); experiment: as above
[15] = biological target: recombinant human PlGF-1 (comprising amino acids 1-131) expressed in E. coli (R&D Systems) (human) (UniProt P49763); experiment: as above
[16] = biological target: CHO human PlGF-1 fragment (comprising amino acids 17-131; ATCC PTA-8540) (human) (UniProt P49763); experiment: … sandwich, capture MAb04, detection pAb264; antigen 60 pg/mL
[17] = biological target: human PlGF-1 fragment (comprising amino acids 17-131) produced in human embryonic kidney cells (human) (UniProt P49763); experiment: as above
[18] = biological target: human PlGF-1 comprising amino acids 1-137 produced in human embryonic kidney cells (human) (UniProt P49763); experiment: as above
[19] = biological target: CHO human PlGF-1 comprising amino acids 1-137 (human PlGF-1-His (1-131), CHO 6305) (human) (UniProt P49763); experiment: as above
[20] = biological target: recombinant human PlGF-1 (comprising amino acids 1-131) expressed in E. coli (R&D Systems) (human) (UniProt P49763); experiment: as above
[21] = biological target: CHO human PlGF-1 fragment (comprising amino acids 17-131; ATCC PTA-8540) (human) (UniProt P49763); experiment: … sandwich, capture MAb04, detection pAb264; antigen 250 pg/mL
[22] = biological target: human PlGF-1 fragment (comprising amino acids 17-131) produced in human embryonic kidney cells (human) (UniProt P49763); experiment: as above
[23] = biological target: human PlGF-1 comprising amino acids 1-137 produced in human embryonic kidney cells (human) (UniProt P49763); experiment: as above
[24] = biological target: CHO human PlGF-1 comprising amino acids 1-137 (human PlGF-1-His (1-131), CHO 6305) (human) (UniProt P49763); experiment: as above
[25] = biological target: recombinant human PlGF-1 (comprising amino acids 1-131) expressed in E. coli (R&D Systems) (human) (UniProt P49763); experiment: as above
[26] = biological target: CHO human PlGF-1 fragment (comprising amino acids 17-131; ATCC PTA-8540) (human) (UniProt P49763); experiment: … sandwich, capture MAb04, detection pAb264; antigen 15 pg/mL
[27] = biological target: human PlGF-1 fragment (comprising amino acids 17-131) produced in human embryonic kidney cells (human) (UniProt P49763); experiment: as above
[28] = biological target: human PlGF-1 comprising amino acids 1-137 produced in human embryonic kidney cells (human) (UniProt P49763); experiment: as above
[29] = biological target: CHO human PlGF-1 comprising amino acids 1-137 (human PlGF-1-His (1-131), CHO 6305) (human) (UniProt P49763); experiment: as above
[30] = biological target: recombinant human PlGF-1 (comprising amino acids 1-131) expressed in E. coli (R&D Systems) (human) (UniProt P49763); experiment: as above

Sequence of CHO human PlGF-1 fragment (comprising amino acids 17-131; ATCC PTA-8540) (human) (P49763 other isoform, or with tags, fused parts or gaps limits assumed): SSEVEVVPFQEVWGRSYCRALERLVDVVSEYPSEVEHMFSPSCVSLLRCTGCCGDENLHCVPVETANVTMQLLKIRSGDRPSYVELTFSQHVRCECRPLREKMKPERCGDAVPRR
Sequence of human PlGF-1 fragment (comprising amino acids 17-131) produced in human embryonic kidney cells (human) (P49763 other isoform, or with tags, fused parts or gaps limits assumed): as above

Work on “rat monoclonal antibody 04 (Rat anti-Human PlGF clone number 358932, R&D Systems)” yielded an RLU [1] of 1.3e+06 RLU, an RLU [2] of 1.64e+06 RLU and an RLU [3] of 2.05e+06 RLU. The RLU [4] was 1.13e+06 RLU, the RLU [5] was 2.19e+06 RLU and the RLU [6] was 18900 RLU. For the same substance, the RLU [7] was 18700 RLU, the RLU [8] was 18800 RLU and the RLU [9] was 19100 RLU. The RLU [10] was 19000 RLU, the RLU [11] was 752000 RLU and the RLU [12] was 957000 RLU. The RLU [13] was 1.26e+06 RLU, the RLU [14] was 644000 RLU and the RLU [15] was 1.36e+06 RLU. It also gave an RLU [16] of 89500 RLU, an RLU [17] of 112000 RLU and an RLU [18] of 159000 RLU. For the same substance, the RLU [19] was 80100 RLU, the RLU [20] was 169000 RLU and the RLU [21] was 293000 RLU. The RLU [22] was 382000 RLU, the RLU [23] was 539000 RLU and the RLU [24] was 246000 RLU. It also gave an RLU [25] of 570000 RLU, an RLU [26] of 34200 RLU and an RLU [27] of 39500 RLU. The RLU [28] was 49700 RLU, the RLU [29] was 32100 RLU and the RLU [30] was 51900 RLU.

— US20100015637A1 (AbbVie / Abbott, published 2010)
